In patent publication US20100151486A1, “OSTEOPONTIN FUNCTIONAL EPITOPES, MONOCLONAL ANTIBODIES AGAINST THE EPITOPES AND USES THEREOF” (SHANGHAI NATIONAL ENGINEERING RESEARCH CENTER OF A, priority 2007, published 2010):

Key:
[1] = test system: MDA-MB-435s cells; experiment: Cell invasion assay (Transwell, Matrigel); assay type: cell-based; conditions: antibody 25 μg/ml; in the presence of hOPN; 24 hours
Description: The assay of cell invasion was carried out using the Transwell system (Corning) with the pore size of […]. The basement membrane of the upper chamber was coated with the artificial matrix gel (Matrigel). After being dried in a flame hood, the matrigel was hydrated with DMEM at 37° C. for 1 hour. MDA-MB-435s cells were detached using 0.2% EDTA and suspended in 0.25% BSA/DMEM at the concentration of 5×10^5 cells/ml. 100 μl of the obtained cell suspension as well as the following 25 μg/nil of antibodies were respectively added into the upper chamber of each well: 1A12 (murine anti-human OPN antibody), c1A12 (human-mouse chimeric antibody), h1A12 (humanized antibody), and 23C3 (irrelevant antibody control). To lower chamber, 0.25% of BSA/DMEM (with or without OPN) was added. The system was then incubated in incubator at 37° C. for 24 hours. After that, the cells remaining in the upper chamber was wiped away using a cotton swab, and the cells penetrate through the basement membrane into the lower chamber were washed with PBS, fixed with 1% formaldehyde, and then stained with 0.5% crystal violet. The cells were counted in the field at 200× magnification under a microscope.

[2] = test system: MDA-MB-435s cells; experiment: Clone formation on soft agar assay; assay type: cell-based; conditions: antibody 25 μg/ml every other day; 3 weeks
Description: The assay of clone formation on soft agar was conducted using a double-layer soft agar system. 2.5% melted agar was mixed the DMEM medium pre-warmed at 37° C. to formulate a 0.5% agar solution, which was then diluted with DMEM to a 0.3% agar solution. To each well of a 24-well plate was added 500 μl of a 0.5% agar solution, which was allowed to gel at 4° C., and then kept warm in an incubator at 37°C. The MDA-MB-435s cells were detached using 0.2% .EDTA and suspended in the 0.3% agar solution at the concentration of 5×10^3 cells/ml. 500 μl of the cell suspension was added each well and left to gel. From the second day, the cells were respectively treated with 1A12, c1A12, h1A12 or the irrelevant antibody (23C3D3) (25 μg/ml) every other day. After 3 weeks, the colony formation ability was evaluated by measuring the size of colonies containing more than 10 cells.

B1: 1A12: murine anti-hOPN mAb; VH SEQ ID NO: 4, VL SEQ ID NO: 6; from hybridoma 1A12 (antibody, V domains shown)
VH: QVQLEQSGPELVKPGASVKMSCKSSGYTFTTYVMHWVKQKPGQGLEWIGYINPYNDGSKYNEKFKGKATLTSDKSSNTAYMELSSLTSEDSAVYYCASHYGGSPAYWGQGTLVTVSA
VL: DILMTQTPLSLPVSLGDQASISCRSSQSLVHSNGNTYLHWYLQKPGQSPKLLIYKVSNRFSGVPDRFSGSGSGTDFTLKISRVEAEDLGVYFCSQSTHVPWTFGGGTKLEIKR
modifications: amino acid sequence of the heavy chain variable region in 1A12; amino acid sequence of the light chain variable region in 1A12
notes: murine anti-hOPN mAb; from hybridoma 1A12
blocking of invasion of the basement membrane by MDA-MB-435s [1]: effectively block | inhibition of clone size formed by MDA-MB-435s cells on soft agar [2]: could inhibit the clone size
